Measurements reported in PMC11290490, “Structural insights into activation mechanisms on NADase of the bacterial DSR2 anti-phage defense system” (Science Advances, 2024).

B1: defense-associated sirtuin2 (DSR2) from Bacillus subtilis 29R (enzyme, UniProt P0DXN8 1-1005, looked up)
chain: MVKVDLESKRYGEKLKEVFLMLDNNVVECIKEITESSRNGKLVFFVGAGVSTLSDYPQWWRLVDKYHEELYGSPKKGNYSSDEYLRIPQIFYNVKGEMAFDGILKDFFQVDKPTNPIHDKILAMNPAHVITTNYDNLIDTACWKRGKYFSVISAEEDVANATSSRYLLKVHGDFRKGFKGENVVLKEDDYLNYDQNYPLISNLMKTIIATHTIVFIGYGLGDYNINMLLNWVRKLQKDSFHKPFFIRTDPSPIENETLIYYENKGLRIIDAASLIDSNEYDYLERYSAVMDLLIESQENKFITKDDEVIDYIYGKISPLFALQYIRKIDLKHVFEYDYHFEVNGTVVRHKNKGFGYMERFFELKESCDERSKLSKKQYERFNALFNFFEKNGVICMAKDAGTLNTSIEINSLAYHGKYDVMKKFIEEQSVSIEDDYKKAFFLACLGRWEESYDLYSNIILNSIDESNGCVYYLSQINRYRIYQSITQAVTQFNGLGLLTFGRHYKPFTDEFLARIEREMTNFNIDDLFNGMPFEFQKKYKILEFLSDNQFLYDDTVKLFELTNKVRSEMSEGSYSFGMSSDIVVLLRLYDNLRFLYENCLWSVSFHEFHQYIRNSMSLLIEKAEYERTRDIDELGFSFFGKKSGFFMEYYDFVNISRHFKIDDIKNLERSCSIDKIRFGEQEKIEEYLVGIAEEITKQFSANGMNVVFYTQFISEAKAALYFAKYVKLSEEGLGKIVKALLFYFPERDLDIGKRYVWLERLTKCNELPKSIISIIDDFLVLQAEKHIDQNYSEVSSNGLYSRDYGALIKHFEKNFISKRLSEITLCLTQDKQKQIDFLFKLLPLLSTNAKSHLLSFKSVENINDLMNGIRIGLIDEFTPEHEELIIEYLETRKVNYIVEKEKGIQTFSSNDYMSTFGIWYFLEEINNSKMEEFIGMDDQYDFFVDPENFDYKKFIPSWLKNYNDKLLGKIAGNKHMKHHVIEVLKERVKNSNDKRYLEILMNYFI
notes: DSR2 from Bacillus subtilis 29R, WP_029317421; SIR2 domain residues 1 to 297, MID 297 to 627, CTD 627 to 1005; Cloned into pET28a; tag not cleaved (purified directly by SEC); For MST the protein was fluorescently labelled with the Monolith Protein Labeling Kit RED-NHS second generation; also called DSR2^WT; His-tag DSR2; source: E. coli BL21(DE3), purified (Ni-NTA, size-exclusion gel filtration)
B2: DSR anti-defense 1 (DSAD1) from phage phi3T/SPbeta (natural protein)
chain: KDTGATHDLVYHSKINTFVWDVEFDIVLSDSKELNKCYFVKCFNPYRINGKCDFAVSSIDIFSEGKRLLIENEFNFKITKAVHVATSKDVTEIVLHLSERISSPFPIVKEVVYLD
notes: DSAD1 from phage phi3T/SPbeta, WP_004399562; source: E. coli BL21(DE3), purified (Ni-NTA, TEV cleavage, SEC); not shown: His-tag, N-terminal, cleaved; Trx-tag, N-terminal, cleaved
B3: monomeric tail tube protein (TTP) of phage SPR (natural protein)
chain: MKTVIQDTADVYFKRKSDGKLVFTAEAQTASFSQAISEEKLRGGIGNKPLYILKSEKEINLTVKNAFFDLEWLAMTQGETIQEETKVKVFDREHGLIVDDTNKVTLKGKPVSDVTFYNKKGLTYKIAVSTDGTYTIPTAFAAAKDKLTAVYQIEKVGRRLAIKASKFSERYEVEYRTIAYNPDTEEVYSDIYIQFPNVSPSGEFEMSLENGNALAPEIKFEALADTDTDEMAVVIEASRDENTAAPVEDTTGSTQSSDLGGTTE
notes: tail tube protein (TTP) from phage SPR, WP_010328117; residues 1 to 73 and 189 to 263 seen in the complex structure; also called Mono TTP; monomeric TTP; source: E. coli BL21(DE3), purified (Ni-NTA, TEV cleavage, SEC; monomeric fraction); not shown: His-tag, N-terminal, cleaved; Trx-tag, N-terminal, cleaved

Tests used:
[1] = biological target: the molecule itself; assay: cryo-EM structure; purified DSR2 or its complex with DSAD1 or TTP (formed at a molar ratio of 1:3, on ice, purified by gel filtration), 1.0 mg/ml on Quantifoil grids
[2] = biological target: B1; assay: as above; conditions: both partners purified
[3] = biological target: B1; assay: MST; DSR2 fluorescently labelled (RED-NHS), 100 nM, mixed with twofold dilutions of TTP or DSAD1; 10 mM phosphate-buffered saline, 0.05% Tween 20; 20 min at room temperature; Monolith NT.115; triplicate; conditions: both partners purified

Binder	stoichiometry N [1]	stoichiometry N [2]	Kd [3] [nM]
B1	4		
B2		0.5 DSAD1:DSR2	40.4
B3			655
